Reference: article PMC8113518, “JRAB/MICAL-L2 undergoes liquid–liquid phase separation to form tubular recycling endosomes” (Communications Biology, 2021)

Target: T1, His-GFP-JRAB/MICAL-L2 (mouse, UniProt Q3TN34 1-1009)
T1 construct: JRAB/MICAL-L2, mouse; cDNA encoding JRAB/MICAL-L2 subcloned into pcDNAHisMax-GFP; The plasmid encodes the His6-tag followed by GFP, then the protein's cDNA; source: HEK293, transfected, purified (cOmplete resin, Superdex 200)
Experiment: recruitment to liposomes seen by confocal microscopy; purified His-GFP-JRAB/MICAL-L2 and His-mCherry-Rab8ADA (150 nM) mixed with PC:PS (7:3) liposomes in 20 mM HEPES-NaOH pH 7.5, 100 mM KCl, 1 mM DTT
Conditions: both partners purified

T1 sequence (Q3TN34 whole entry): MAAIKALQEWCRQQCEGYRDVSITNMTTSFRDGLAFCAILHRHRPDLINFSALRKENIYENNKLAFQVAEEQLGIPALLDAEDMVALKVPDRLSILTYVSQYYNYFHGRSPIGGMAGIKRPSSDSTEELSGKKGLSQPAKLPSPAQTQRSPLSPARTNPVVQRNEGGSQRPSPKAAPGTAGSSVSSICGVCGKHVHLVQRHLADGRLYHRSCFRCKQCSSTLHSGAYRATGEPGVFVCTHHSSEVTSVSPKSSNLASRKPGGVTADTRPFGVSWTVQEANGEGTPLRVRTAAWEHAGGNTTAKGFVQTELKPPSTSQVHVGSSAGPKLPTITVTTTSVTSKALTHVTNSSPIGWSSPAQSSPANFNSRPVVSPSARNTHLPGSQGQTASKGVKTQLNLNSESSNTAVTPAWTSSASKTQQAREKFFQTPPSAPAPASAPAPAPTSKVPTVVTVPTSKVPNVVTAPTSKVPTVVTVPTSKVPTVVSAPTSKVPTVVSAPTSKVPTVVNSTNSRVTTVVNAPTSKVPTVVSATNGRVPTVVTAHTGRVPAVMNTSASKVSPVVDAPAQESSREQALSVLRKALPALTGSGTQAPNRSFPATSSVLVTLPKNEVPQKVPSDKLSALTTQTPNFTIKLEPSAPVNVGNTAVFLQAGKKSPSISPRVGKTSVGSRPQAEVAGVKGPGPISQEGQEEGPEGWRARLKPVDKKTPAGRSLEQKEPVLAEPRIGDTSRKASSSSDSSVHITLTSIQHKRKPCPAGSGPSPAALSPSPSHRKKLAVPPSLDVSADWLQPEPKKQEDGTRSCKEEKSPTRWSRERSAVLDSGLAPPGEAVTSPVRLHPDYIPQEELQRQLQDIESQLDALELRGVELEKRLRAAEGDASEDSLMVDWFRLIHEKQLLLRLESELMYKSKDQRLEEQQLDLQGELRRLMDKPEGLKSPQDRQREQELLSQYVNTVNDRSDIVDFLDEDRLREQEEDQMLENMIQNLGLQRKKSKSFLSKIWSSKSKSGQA

B1: His-mCherry-Rab8ADA (natural protein, mouse, UniProt P55258 1-207, looked up)
chain: MAKTYDYLFKLLLIGDSGVGKTCVLFRFSEDAFNSTFISTIGIDFKIRTIELDGKRIKLQIWDTAGLERFRTITTAYYRGAMGIMLVYDITNEKSFDNIRNWIRNIEEHASADVEKMILGNKCDVNDKRQVSKERGEKLALDYGIKFMETSAKANINVENAFFTLARDIKAKMDKKLEGNSPQGSSHGVKITVEQQKRTSFFRCSLL
notes: Rab8A, mouse, dominant-active mutant Q67L; cDNA subcloned into pcDNAHisMax-mCherry; The plasmid encodes the His6-tag followed by mCherry, then the protein's cDNA; Purified from the membrane (pellet) fraction; source: HEK293, transfected, purified from the CHAPS-extracted pellet fraction (Talon resin)
binding result: binds
